Source: paper PMC6778059 (Nature cell biology, 2019)

Experiments:
Assay in all cases: ITC
SNX32 PX domain = biological target: SNX32 PX domain
SNX5 PX domain = biological target: T1, SNX5 PX domain (UniProt Q9Y5X3 25-172)
T1 sequence: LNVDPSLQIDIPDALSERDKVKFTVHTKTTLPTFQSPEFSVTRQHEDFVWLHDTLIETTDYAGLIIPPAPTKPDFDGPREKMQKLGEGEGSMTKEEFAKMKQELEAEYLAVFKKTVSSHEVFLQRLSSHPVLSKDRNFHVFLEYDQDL

SNX6 PX domain = biological target: T2, SNX6 PX domain (UniProt Q9UNH7 26-173)
T2 sequence: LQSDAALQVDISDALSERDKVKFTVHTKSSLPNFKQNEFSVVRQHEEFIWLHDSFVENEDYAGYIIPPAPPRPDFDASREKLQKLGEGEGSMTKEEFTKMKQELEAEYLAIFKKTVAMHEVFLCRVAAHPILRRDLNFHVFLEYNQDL

Molecule | Kd (SNX5 PX domain) | binding result (SNX5 PX domain) | also measured
CI-MPR peptide (residues 2347-2375) (from UniProt P11717 2347-2375) | – | – | Kd (SNX32 PX domain): 12 µM
REVSFYYSEENKLPEPEELDLEPENMES [IGF1R peptide (residues 1275-1302)] | 15 µM | – | –
WDPVGYYYSDGSLKIVPGHARCQPG [SEMA4C peptide (residues 731-755)] | 26 µM | – | –
SNVSYKYSKVNKEEETDENETEWLMEEIQ [CI-MPR peptide (residues 2347-2375)] | ~25 µM | – | Kd (SNX6 PX domain): 24 µM
SNVSYKYSKVNKEEETDENETEWDMEEIQ [CI-MPR peptide L2370D] | – | binds | –
SNVSYKYSKVNKEEETDENETEWLDEEIQ [CI-MPR peptide M2371D] | – | binds | –
SNVSYKYSKVNKEEETDENETEAAAEEIQ [CI-MPR peptide WLM-AAA] | – | binds | –
